According to patent publication US20260273042A1 (INTERNATIONAL AIDS VACCINE INITIATIVE, published 2026):

Legend:
BG505 MD53 = experiment: SPR (ligand and analyte not given)
AC10 Olio6 = experiment: SPR (ligand and analyte not given)
MD39-10MUT = experiment: SPR, trimer ligand, Fab analyte (1-to-1 fit relatively poor) [panel A]

B1: PGT145 (antibody, V domains shown)
VH: QVQLVQSGAEVKKPGSSVKVSCKASGNSFSNHDVHWVRQATGQGLEWMGWMSHEGDKTGLAQKFQGRVTITRDSGASTVYMELRGLTADDTAIYYCLTGSKHRLRDYFLYNEYGPNYEEWGDYLATLDVWGHGTAVTVSS
VL: EVVITQSPLFLPVTPGEAASLSCKCSHSLQHSTGANYLAWYLQRPGQTPRLLIHLATHRASGVPDRFSGSGSGTDFTLKISRVESDDVGTYYCMQGLHSPWTFGQGTKVEIKR
**Q.** For B1, which Kd (BG505 MD53) is on record?
**A.** The Kd was 22 nM.

**Q.** And the Kd (AC10 Olio6)?
**A.** The Kd was 53 nM.

B2: PGT151 Fab (Fab, V domains shown)
VH: RVQLVESGGGVVQPGKSVRLSCVVSDFPFSKYPMYWVRQAPGKGLEWVAAISGDAWHVVYSNSVQGRFLVSRDNVKNTLYLEMNSLKIEDTAVYRCARMFQESGPPRLDRWSGRNYYYYSGMDVWGQGTTVTVSS
VL: DIVMTQTPLSLSVTPGQPASISCKSSESLRQSNGKTSLYWYRQKPGQSPQLLVFEVSNRFSGVSDRFVGSGSGTDFTLRISRVEAEDVGFYYCMQSKDFPLTFGGGTKVDLKR
**Q.** Which Kd (MD39-10MUT) does the source give for B2 here?
**A.** The Kd was 35 nM.
